This is an account of results in patent US20220389118A1 (Chugai, published 2022).

Positions count from the first letter of the chain named. Bounds are passed on as bounds.

As a reminder, the Kd is the constant that tells how readily two partners part at equilibrium. Low readings indicate tighter binding, high ones weaker binding.

The target of assay [1] is T1, human FcγRIa extracellular domain with C-terminal His tag (human, UniProt P12314 16-292).
T1 construct: not shown: His tag at the C terminus
As to the kind of experiment: SPR (Biacore), antibody captured, FcγR analyte. In general terms: In SPR one partner is held on a chip, and binding of the other changes the refractive index at the surface.
T1 sequence (P12314 16-292): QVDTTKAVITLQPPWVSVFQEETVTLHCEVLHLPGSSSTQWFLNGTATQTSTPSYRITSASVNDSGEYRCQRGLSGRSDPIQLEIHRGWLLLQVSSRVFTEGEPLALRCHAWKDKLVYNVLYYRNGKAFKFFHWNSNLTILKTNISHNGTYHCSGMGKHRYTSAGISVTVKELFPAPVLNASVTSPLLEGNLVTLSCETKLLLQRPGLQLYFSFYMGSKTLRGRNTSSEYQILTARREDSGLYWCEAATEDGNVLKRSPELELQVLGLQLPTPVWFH

Assay [2] concerns the target T2, human FcγRIIb extracellular domain with C-terminal His tag (human, UniProt P31994 43-217).
T2 construct: extracellular domain; not shown: His tag at the C terminus
T2 sequence (looked up): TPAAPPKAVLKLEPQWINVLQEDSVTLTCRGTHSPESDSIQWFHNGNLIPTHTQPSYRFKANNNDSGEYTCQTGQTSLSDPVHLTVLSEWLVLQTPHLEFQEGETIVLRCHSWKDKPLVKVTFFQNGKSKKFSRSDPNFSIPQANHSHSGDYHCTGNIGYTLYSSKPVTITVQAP
As to the kind of experiment: SPR (Biacore), antibody captured, FcγR analyte.

For assay [3], the target named is T3, human FcγRIIa type R (R131) extracellular domain with C-terminal His tag (human, UniProt P12318 34-217).
T3 construct: extracellular domain; also called FcγRIIaR; not shown: His tag at the C terminus
T3 sequence (looked up): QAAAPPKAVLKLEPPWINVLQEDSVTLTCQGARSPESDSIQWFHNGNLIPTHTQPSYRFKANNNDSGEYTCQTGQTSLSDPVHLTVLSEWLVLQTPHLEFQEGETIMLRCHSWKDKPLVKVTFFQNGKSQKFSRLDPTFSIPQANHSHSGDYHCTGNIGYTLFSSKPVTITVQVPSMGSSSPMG
In words: SPR (Biacore), antibody captured, FcγR analyte.

For assay [4], the target named is T2, human FcγRIIb extracellular domain with …. As to the kind of experiment: SPR (Biacore); KD of IL6R-B3/IL6R-L divided by KD of this antibody.
Assay [5] concerns the target T3, human FcγRIIa type R (R131) …. The description is as above.
Assay [6] deals with T2, human FcγRIIb extracellular domain with …. As to the kind of experiment: SPR (Biacore); KD for FcγRIIaR divided by KD for FcγRIIb.
The target of assay [7] is T4, human FcγRIIb extracellular domain (human, UniProt P31994 43-217).
T4 construct: also called FcγIIB; not shown: His tag at the C terminus
T4 sequence: T2 sequence (looked up)
In words: fold against IL6R-B3/IL6R-L, from SPR KD values.

In assay [8] the target is T5, human FcγRIIa type R extracellular domain (human, UniProt P12318 34-217).
T5 construct: also called FcγRIIaR; FcγRIIa(R); not shown: His tag at the C terminus
T5 chain: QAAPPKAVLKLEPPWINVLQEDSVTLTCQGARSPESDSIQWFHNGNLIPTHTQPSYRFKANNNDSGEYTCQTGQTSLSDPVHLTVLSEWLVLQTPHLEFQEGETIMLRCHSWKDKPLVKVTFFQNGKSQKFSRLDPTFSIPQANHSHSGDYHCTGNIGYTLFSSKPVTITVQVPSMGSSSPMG
As to the kind of experiment: fold against IL6R-B3/IL6R-L, from SPR KD values.

Assay [9] has as its target T4, human FcγRIIb extracellular domain. In words: ratio of the SPR KD for FcγRIIaH to the KD for FcγRIIb (selectivity).
The target is the same in assay [10]. As to the kind of experiment: SPR (Biacore), antibody captured on chip, FcγR extracellular domain as analyte, 25 C.
For assay [11], the target named is T5, human FcγRIIa type R extracellular …. Described as above.
The target of assay [12] is T6, human FcγRIa extracellular domain (human, UniProt P12314 16-292).
T6 construct: also called CD64; not shown: His tag at the C terminus
T6 sequence (P12314 16-292): as the sequence (P12314 16-292) above
The assay is described as above.

For assay [13], the target named is T4, human FcγRIIb extracellular domain. In words: ratio of the SPR KD for FcγRIIaR to the KD for FcγRIIb (selectivity).
Assay [14] has as its target T7, human FcγRIa extracellular domain with C-terminal His tag (human, UniProt P12314 16-292).
T7 construct: extracellular domain
In words: SPR (Biacore).
T7 sequence (P12314 16-292): as the sequence (P12314 16-292) above

In assay [15] the target is T8, human FcγRIIb extracellular domain with C-terminal His tag (human, UniProt P31994 43-217).
T8 construct: extracellular domain
T8 sequence (looked up): T2 sequence (looked up)
In words: SPR (Biacore).

For assay [16], the target named is T9, human FcγRIIa type R extracellular domain with C-terminal His tag (human, UniProt P12318 34-217).
T9 construct: extracellular domain; also called FcγRIIaR; FcγRIIa(R)
T9 sequence (looked up): T3 sequence (looked up)
As to the kind of experiment: SPR (Biacore); worded summary of Table 28.

Assay [17] deals with T8, human FcγRIIb extracellular domain with …. As to the kind of experiment: SPR (Biacore); worded summary of Table 28.
Assay [18] concerns the target T9, human FcγRIIa type R extracellular …. In words: SPR (Biacore).
For assay [19], the target named is T8, human FcγRIIb extracellular domain with …. As to the kind of experiment: SPR (Biacore), ratio of KDs.
Assay [20] addresses T9, human FcγRIIa type R extracellular …. As to the kind of experiment: SPR (Biacore), parent IL6R-B3/IL6R-L.
Assay [21] deals with T8, human FcγRIIb extracellular domain with …. As to the kind of experiment: SPR (Biacore), parent IL6R-B3/IL6R-L.

B1: IL6R-BP546/IL6R-L (antibody, human IgG1, kappa)
heavy: QVQLQESGPGLVKPSETLSLTCAVSGHSISHDHAWSWVRQPPGEGLEWIGFISYSGITNYNPSLQGRVTISRDNSKNTLYLQMNSLRAEDTAVYYCARSLARTTAMDYWGEGTLVTVSSASTKGPSVFPLAPSSKSTSGGTAALGCLVKDYFPEPVTVSWNSGALTSGVHTFPAVLQSSGLYSLSSVVTVPSSSLGTQTYICNVNHKPSNTKVDKKVEPKSCDKTHTCPPCPAPDLLGDDSVFLFPPKPKDTLMISRTPEVTCVVVDVSDEDGEVKFNWYVDGVEVHNAKTKPREEQDNSTYRVVSVLTVLHQDWLNGKEYKCKVSNKALPRPIEKTISKAKGQPREPQVYTLPPSRDEMTKNQVSLTCLVKGFYPSDIAVEWESNGQPENNYKTTPPVLDSDGSFFLYSKLTVDKSRWQQGNVFSCSVMHEALHNHYTQESLSLSP
light: not shown
notes: L358M introduced into IL6R-BP230; copies: 2 + 2
As for B1, the Kd was determined as 9 nM in assay [1], 15 nM in assay [2] and 500 nM in assay [3]. For the same molecule, the “KD(IIb) of parent polypeptide/KD(IIb) of altered polypeptide” value in assay [4] was 205. The “KD(IIaR) of parent polypeptide/KD(IIaR) of altered polypeptide” value in assay [5] came out at 2.2. In addition, the “KD(IIaR)/KD(IIb)” value in assay [6] is 32.8.

B2: IL6R-BP564/IL6R-L (antibody, human IgG1, kappa)
heavy: B1 heavy with D235E, D270E, E274D, M360L
light: not shown
notes: copies: 2 + 2
For the molecule B2, the “KD(IIb) of the parent polypeptide/KD(IIb) of the altered polypeptide” value (“KD(IIb) … of the altered polypeptide” below) in assay [7] came to 141. In assay [8], the “KD(IIaR) of the parent polypeptide/KD(IIaR) of the altered polypeptide” value (“KD(IIaR) … of the altered polypeptide” below) is 1.9. In addition, in [9], the “KD(IIaH)/KD(IIb)” value came to 454. The results for the Kd in assay [10], in assay [11] and in [12] were 22 nM, 580 nM and 31 nM, respectively. In addition, the “KD(IIaR)/KD(IIb)” value in [13] is 26.2.

B3: IL6R-BP493/IL6R-L (antibody, human IgG1, kappa)
heavy: B1 heavy with D235E, D239G, V266I, S269A, D270E, R332A, M360L
light: not shown
notes: copies: 2 + 2
For the molecule B3, the values for the Kd in assay [14] and in [15] were 0.82 nM and 21 nM, respectively. The “FcγRIIaR binding as compared to IL6R-B3/IL6R-L” value in assay [16] was not above 1.5 times. For the same molecule, in assay [17], the “FcγRIIb-binding activity as compared to IL6R-B3/IL6R-L” value was not below 100 times.

B4: IL6R-BP562/IL6R-L (antibody, human IgG1, kappa)
heavy: B1 heavy with D235E, E274D, M360L
light: not shown
notes: copies: 2 + 2
B4: the “KD(IIb) … of the altered polypeptide” value in assay [7] was found to be 131. In [8], the “KD(IIaR) … of the altered polypeptide” value worked out at 1.6. Also, the “KD(IIaH)/KD(IIb)” value in [9] was determined as 466. For the same molecule, the values for the Kd in assay [10], in [11] and in assay [12] were 24 nM, 680 nM and 25 nM, respectively. In assay [13], the “KD(IIaR)/KD(IIb)” value came to 29.

B5: IL6R-BP560/IL6R-L (antibody, human IgG1, kappa)
heavy: B1 heavy with D235E, D239G, S269G, D270E, M360L
light: not shown
notes: anti-human IL-6 receptor IgG1 variant; copies: 2 + 2
Consider B5, for which the “KD(IIb) … of the altered polypeptide” value in assay [7] came out at 16.8. Also, the “KD(IIaR) … of the altered polypeptide” value in assay [8] came to 0.3. Moreover, in assay [9], the “KD(IIaH)/KD(IIb)” value came out at 168. Further, the Kd in assay [10] worked out at 180 nM; in assay [11], 4200 nM; in assay [12], 5.6 nM. Besides, in assay [13], the “KD(IIaR)/KD(IIb)” value turned out to be 22.8.

B6: IL6R-BP557/IL6R-L (antibody, human IgG1, kappa)
heavy: B1 heavy with D235E, S269G, M360L
light: not shown
notes: copies: 2 + 2
With B6, the figures for the equilibrium dissociation constant (Kd) in assay [18] and in [15] were 850 nM and 20 nM, respectively. For the same molecule, the “FcγRIIaR binding as compared to IL6R-B3/IL6R-L” value in assay [16] is not above 1.5 times. Further, the “FcγRIIb-binding activity as compared to IL6R-B3/IL6R-L” value in assay [17] is not below 100 times.

B7: IL6R-BP559/IL6R-L (antibody, human IgG1, kappa)
heavy: B1 heavy with D235E, D239G, V266I, S269A, D270E, E274D, R332A, M360L
light: not shown
notes: copies: 2 + 2
For B7, the Kd in assay [14] amounted to 1.1 nM; in [18], 1600 nM; in assay [15] it was 28 nM. Besides, the “KD(IIaH)/KD(IIb)” value in assay [19] is 712. Besides, in assay [19], the “KD(IIaR)/KD(IIb)” value was determined as 58.4. For the same molecule, the “FcγRIIaR binding as compared to IL6R-B3/IL6R-L” value in [16] was not above 1.5 times. The “FcγRIIb-binding activity as compared to IL6R-B3/IL6R-L” value in [17] is not below 100 times. Besides, the “KD(IIaR) parent/KD(IIaR) altered polypeptide” value in assay [20] was 0.7. The “KD(IIb) parent/KD(IIb) altered polypeptide” value in [21] was determined as 110.

B8: IL6R-BP548/IL6R-L (antibody, human IgG1, kappa)
heavy: B1 heavy with M360L, Q421E
light: not shown
notes: Q419E introduced into IL6R-BP230; copies: 2 + 2
As for B8, the dissociation constant Kd in [1] turned out to be 12 nM; in assay [2] it was 19 nM; in assay [3], 500 nM. Also, the “KD(IIb) of parent polypeptide/KD(IIb) of altered polypeptide” value in assay [4] came out at 162. Also, the “KD(IIaR) of parent polypeptide/KD(IIaR) of altered polypeptide” value in assay [5] worked out at 2.2. Further, in assay [6], the “KD(IIaR)/KD(IIb)” value came to 26.2.

B9: IL6R-BP500/IL6R-L (antibody, human IgG1, kappa)
heavy: B1 heavy with D235E, V266I, S269A, D270E, R332A, M360L
light: not shown
notes: copies: 2 + 2
B9: the Kd in assay [14] stood at 2.3 nM; in assay [18], 720 nM; in assay [15] it was 24 nM. Moreover, the “KD(IIaH)/KD(IIb)” value in assay [19] was determined as 1030. Also, the “KD(IIaR)/KD(IIb)” value in assay [19] came to 29.9. The “FcγRIIaR binding as compared to IL6R-B3/IL6R-L” value in assay [16] is not above 1.5 times. Besides, the “FcγRIIb-binding activity as compared to IL6R-B3/IL6R-L” value in assay [17] is not below 100 times. Moreover, the “KD(IIaR) parent/KD(IIaR) altered polypeptide” value in assay [20] was 1.5. In addition, the “KD(IIb) parent/KD(IIb) altered polypeptide” value in assay [21] came to 128.

B10: IL6R-BP492/IL6R-L (antibody, human IgG1, kappa)
heavy: B1 heavy with D235E, D239G, V266I, S269A, D270E, D298Y, R332A, M360L
light: not shown
notes: copies: 2 + 2
For the molecule B10, the values for the Kd in [14], in assay [18] and in assay [15] were 0.79 nM, 920 nM and 24 nM, respectively. In addition, the “KD(IIaH)/KD(IIb)” value in [19] was 678. For the same molecule, the “KD(IIaR)/KD(IIb)” value in assay [19] came out at 38.8. Further, the “FcγRIIaR binding as compared to IL6R-B3/IL6R-L” value in assay [16] is not above 1.5 times. In assay [17], the “FcγRIIb-binding activity as compared to IL6R-B3/IL6R-L” value is not below 100 times. The “KD(IIaR) parent/KD(IIaR) altered polypeptide” value in [20] was found to be 1.2. In assay [21], the “KD(IIb) parent/KD(IIb) altered polypeptide” value amounted to 131.
